We go through 3 substances from publication PMC3493562.

Where “and” joins values, the source holds several entries; their conditions need not be identical. Equal values may be shown once. Read-outs that look alike come from different tables or passages of the source.

The target in series [1] is amyloid β peptide (Aβ) of the TBS-soluble fraction of human Alzheimer's disease brain (human (endogenous in brain)). Nature of the series: SDS-PAGE and immunoblot. Background: Immunoblotting shows a protein as a band on a membrane.
For series [2] the target is unchanged. Briefly: SEC. (In general: In gel filtration, larger molecules generally elute earlier.)
The next series can be described thus: split reporter. Conditions: split reporter (BiFC, NanoBiT).
Series [3] has as its target split-luciferase tagged Aβ. Nature of the series: split reporter.
In series [4] the target is split-luciferase tagged Aβ. Nature of the series: SEC + split reporter.
For series [5], the target named is split-luciferase tagged Aβ. Nature of the series: split reporter. This is another data set of the same source.
For series [6], the target named is split-luciferase tagged Aβ. Nature of the series: split reporter. The source holds these as a separate data set.

For orientation: stoichiometry N means a count of units in the complex or per binding partner. For the substance “amyloid β peptide (Aβ) of the TBS-soluble fraction of human Alzheimer's disease brain”, the stoichiometry N was 2 in series [1]; 2 and 3 in series [2]. Besides, the “percent of LMW Aβ eluting in the HMW Aβ fraction after incubation without apoE” value in “SEC” amounted to 0.5 ± 0.7 without apoE.
Take split-luciferase tagged Aβ: in “split reporter”, the “luminescence (%) after incubation with SEC fraction 6 of AD brain” value was 141.8% in AD fraction 6, the “luminescence (%) after incubation with SEC fraction 6 of control brain” value is given as 99.8% in control fraction 6, the “luminescence (%) after incubation with SEC fraction 7 of AD brain” value stood at 198.4% in AD fraction 7 and the “luminescence (%) after incubation with SEC fraction 7 of control brain” value is on record as 163.2% in control fraction 7. Moreover, in the series “split reporter”, the “luminescence (%) after incubation with SEC fraction 8 of AD brain” value is 256.4% in AD fraction 8, the “luminescence (%) after incubation with SEC fraction 8 of control brain” value is 230.8% in control fraction 8, the “luminescence (%) after incubation with SEC fraction 9 of AD brain” value is on record as 207.6% in AD fraction 9 and the “luminescence (%) after incubation with SEC fraction 9 of control brain” value is 202.6% in control fraction 9.
Turning to split-luciferase tagged Aβ (peptide), in series [3], the luminescence (%) after incubation with fraction 8 of APOEε3/ε3 AD brains amounted to 168%, the luminescence (%) after incubation with fraction 8 of APOEε4/ε4 AD brains was found to be 193%, the luminescence of cell lysate (%) with apoA-II co-expressed was found to be 100% and the luminescence of cell lysate (%) with apoE2 co-expressed was 89.9%. In series [3], the luminescence of cell lysate (%) with apoE3 co-expressed was found to be 96.4%, the luminescence of cell lysate (%) with apoE4 co-expressed turned out to be 92.5%, the luminescence of conditioned medium (% of control) with apoA-I co-expressed was 132% and the luminescence of conditioned medium (% of control) with apoA-II co-expressed was 89.3%. Besides, in series [3], the luminescence of conditioned medium (% of control) with apoE3 co-expressed turned out to be 279%, the luminescence of conditioned medium (%) with apoA-II co-expressed was determined as 101%, the luminescence of conditioned medium (%) with apoE3 co-expressed is 229% and the luminescence of conditioned medium (%) with apoE4 R61T co-expressed was 228%. In series [3], this substance yielded a luminescence of conditioned medium (%) with apoE4 co-expressed of 261%. Moreover, the stoichiometry N in series [4] worked out at 2. In series [5], this substance showed a luminescence of conditioned medium (% of control) with apoA-II co-expressed of 91.7%, a luminescence of conditioned medium (% of control) with apoE3 NTF co-expressed of 113%, a luminescence of conditioned medium (% of control) with apoE3 co-expressed of 274% and a luminescence of conditioned medium (% of control) with apoE 192-242 co-expressed of 142%. Besides, in series [5], the luminescence of conditioned medium (% of control) with apoE 192-272 co-expressed came to 185%, the luminescence of conditioned medium (% of control) with apoE 231-299 co-expressed is 223%, the luminescence of conditioned medium (% of control) with apoE 243-299 co-expressed is 235% and the luminescence of conditioned medium (% of control) with apoE CTF co-expressed was determined as 239%. For the same substance, in series [6], the luminescence of conditioned medium (% of control) with apoE3 NTF co-expressed came out at 114%, the luminescence of conditioned medium (% of control) with apoE3 co-expressed turned out to be 218% and the luminescence of conditioned medium (% of control) with apoE CTF co-expressed amounted to 206%.
